Source: the supplement of paper PMC9170038

The sequences below were run on MS2 coat protein (assay: apparent KD of MS2 coat protein, switch ON state; designed switch direction (-1 OFF switch, 1 ON switch): 1; higher = weaker reporter binding). Settings: FMN input: 0 or 200 uM; Eterna round: R93 (includes R88 designs).
In short: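 Binding of SNAP-549-labelled MS2 coat protein was measured on designed RNA switches transcribed on-chip from Illumina sequencing clusters. The protein rose in twofold steps from 0.7 or 1.5 nM to 3 µM, with 0.8–1.5 h per step early on and 10–20 min per step later, in 100 mM Tris-HCl pH 7.5, 80 mM KCl, 4 mM MgCl2, without or with constant ligand. Each design's apparent KD is the median of fits to its normalised cluster binding curves.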

Going from “AAAACACAUGAGGAUCACCCAUGUCAAAAAAACACAGGAUAUCCAAAAAAAAAAAAAAAAGGAGAAGGGUGAAAAA [high kcal]” to “AAUAUACAUGAGGAUCACCCAUGUAUUAAUAGCUGAGGAUAUACGGGUGAAAAUAGCAUAGUAGAAGGCGGGUGUA [SameState1 Malc#10]”, the “apparent KD of MS2 coat protein” value rises from 0.065 µM to 0.107 µM (1.6-fold).

Going from “AACCAACAUGAGGAUCACCCAUGUCAACCCAAGCGAGGAUAUCGGAGAAUAACAAUGGGACGAGAAGGCGCGACCU [ss1-2]” to “UUAUUACAUGAGGAUCACCCAUGUUUAGUGGUGACAGGAUAUACGAAAAAAAAAAAAAAAGUAGAAGGGUCUUAUU [SS 1.1]”, the “apparent KD of MS2 coat protein” value rises from 0.0344 µM to 0.162 µM (4.7-fold).

Compared with “AUAUAUAUAAGGUAGGAUAUCCAAAAAUCCACAUGAGGAUCACCCAUGUAAAGAAAGAAAAAAUGGGAGAAGGACCAUAUAUAUA [77%, More Tesla, 6]”, “AACAAUCUAUCUGAGGAUAUCAUGUCAAAGACAUGAGGAUCACCCAUGUUGCAGGAAACUGCUCAUGAGAAGGCAGAUAGAUUGA [SS2: 1129]” is 2.4-fold higher in “apparent KD of MS2 coat protein” value: 0.0169 µM for the first, 0.041 µM for the second.

Compared with “AGAAAUAAAAGAGAGGAUAUCCAAAAGAAAACAUGAGGAUCACCCAUGUAAAACAAAACAAAAUGGGAGAAGGCUCAAAAUAAGA [Topaz 15]”, “AAGAAACAUGAGGAUCACCCAUGUACCCAAAAGGCAGGAUAUGGGAAAGAAAGAAAGAAACCAGAAGGGCCAUGAA [Sogdianus]” is 1.5-fold higher in “apparent KD of MS2 coat protein” value: 0.0198 µM for the first, 0.0301 µM for the second.

Going from “AACCAACAUGAGGAUCACCCAUGUCUACAGGAUUAAGGAUAUGGGCAGGGCUUCCCUGCACUAGAAGGUGAUCCAA [Enonenen]” to “AGAAAUAAAGGAGAGGAUAUCCAAAAGAAAACAUGAGGAUCACCCAUGUAAAAGAAAAUAAAGUGGGAGAAGGCUUCAAAUAAGA [Starry modified V5]”, the “apparent KD of MS2 coat protein” value falls from 0.409 µM to 0.0187 µM (22-fold).

Going from “AUAUAUAUAAGACAGGAUAUCCUAAAGUAAACAUGAGGAUCACCCAUGUAAAGAAAGAAACUCAUGGAGAAGGGUCAAUAUAUAU [Mat - Same State 2 - Tesla mod - D81]” to “GAAAAACAUGAGGAUCACCCAUGUGGAAAUAUGGGAGGAUAUACGAAGACGAAAGUCGAAGUAGAAGGCCUAAAAG [Same State 1.4d (Mat - Mod of Eli - )]”, the “apparent KD of MS2 coat protein” value rises from 0.0141 µM to 0.0295 µM (2.1-fold).

First: AAAAAACAUGAGGAUCACCCAUGUCUUCGGACAUGAGGAUAUGUACAGACUUCGGUCUGUACAGAAGGCAUAAAAA [SS1 - 1010]
Second: AAAAAACAUGAGGAUCACCCAUGUGAAAAAUUCGCAGGAUAUCCCUUUUUUAAAUGGGAGGGAGAAGGGUGAAAAA [Nob's Hobby 16 - Jieux - Same State 1]
The “apparent KD of MS2 coat protein” value of the first is 6.4-fold higher: 0.221 µM for the first, 0.0348 µM for the second.

“GAAAAACAUGAGGAUCACCCAUGUAGAAAUAUGGUAGGAUAUACAAAGACGAAAGUCAAAGUAGAAGGGCCAAAAG [Starry Same State 1.4 (mat747 round 1 mod)]” and “GAAAAACAUGAGGAUCACCCAUGUAAGAUAAACACAGGAUAUGCGAAAAUAAACAAAUAAGCAGAAGGGUGAAAAG [Mat - Same State 1 - Tesla mod - 77]” are within 1.5-fold of each other in “apparent KD of MS2 coat protein” value: 0.013 µM for the first, 0.0185 µM for the second.

Compared with “CGAAGACAUGAGGAUCACCCAUGUGGGAUUAUGGGAGGAUAUACAAAGACGAGAGUCAGAGUAGAAGGCCUAGGAA [salish99-ss1-124(!)]”, “AGAAAUAAAGGAGAGGAUAUUCAAAAAGGGACAUGAGGAUCACCCAUGUAAAAGAAAAUAAAAUGGGAGAAGGCUCUAAAUAAAG [80%, More Helter Skelter 2]” is 2.1-fold higher in “apparent KD of MS2 coat protein” value: 0.0233 µM for the first, 0.0496 µM for the second.

“GAGAAGAAGAGAGAGGAUAUCCAAAGGAAAACAUGAGGAUCACCCAUGUAAAAGGUAGGAAAUUGGGAGAAGGCUCAAAAGAGGG [salish99-ss2-028(!)]” and “AGGAAACAUGAGGAUCACCCAUGUAAAAAUAACGCAGGAUAUGGAAACACGAAAGUGAAACCAGAAGGGUGAAAAG [77%, Mat - Mod of Eli, 14]” are within 1.5-fold of each other in “apparent KD of MS2 coat protein” value: 0.0199 µM for the first, 0.0189 µM for the second.

“AAAAAACAUGAGGAUCACCCAUGUCAAAAGACAUGAGGAUAUGUACAGACUUCGGUCUGUACAGAAGGCAUGUCAA [SS1 - 1019]” and “CGAAGACAUGAGGAUCACCCAUGUCGUCGUAACAGAGGAUAUGGGAGCGCCAAGGGCGCAUCAGAAGGCUGAAAAC [Beusle]” are within 1.5-fold of each other in “apparent KD of MS2 coat protein” value: 0.0211 µM for the first, 0.0178 µM for the second.

Going from “CAGAGGAAGAGAGAGGAUAUCCAAAGGAAAACAUGAGGAUCACCCAUGUAAAAGGUAGGAAAUUGGGAGAAGGCUCAAGAGAGAG [salish99-ss2-064]” to “AUACUGGAGGACAAGGAUAUGUGCUCCACGACAUGAGGAUCACCCAUGUGCGACGUGGUAGUGAAACAGAAGGUGUCCUAUUGUA [Edonisve]”, the “apparent KD of MS2 coat protein” value falls from 0.0274 µM to 0.0131 µM (2.1-fold).

First: GAUAAACAUGAGGAUCACCCAUGUAGAUAUAUGGGAGGAUAUACAAAGACGAUAGUCAUAGUAGAAGGCCUAAUAG [77%, Mat - Mod of Eli - With 5 more U's]
Second: AACAAUCUAUCUGAGGAUAUCAAGUCAAAGACAUGAGGAUCACCCAUGUGCAGGAAAACUGCAUUUGAGAAGGCAGAUAGAUUGA [SS2: 1108]
The “apparent KD of MS2 coat protein” value of the first is 2.9-fold higher: 0.03 µM for the first, 0.0103 µM for the second.

“AUAUAUAUAAGGUAGGAUAUCCAAUAAUCCACAUGAGGAUCACCCAUGUAAAGAAAGAAAAAGUGGGAGAAGGGCCAUAUAUAUA [viburnum 7]” and “AAACCACAUGAGGAUCACCCAUGUAAAAAAAACACAGGAUAUGGAAACACGAAAGUGAAACCAGAAGGGUGAAAAA [77%, Mat - Mod of Eli, 26]” are within 1.5-fold of each other in “apparent KD of MS2 coat protein” value: 0.0174 µM for the first, 0.0184 µM for the second.

First: AAAAAAAAAGUCGAGGAUAUCCACAUGGCUACAUGAGGAUCACCCAUGUGAAGAAAAGCACAUGAGGAGAAGGCGACAAAAAAAAA [Tightrope]
Second: UAGAGACAUGAGGAUCACCCAUGUAGGAUUAUGGGAGGAUAUACAAAGACGAGAGUCAGAGUAGAAGGCCUAGGAU [salish99-ss1-134(!)]
The “apparent KD of MS2 coat protein” value of the first is 2.4-fold lower: 0.0116 µM for the first, 0.0274 µM for the second.

Going from “GAAAAACAUGAGGAUCACCCAUGUAGAAAUAUGGGAGGAUAUACAAAGACGAAAGUCGAAGUAGAAGGCCUAAAAG [Mat - Same State 1 - Eli mod - D23]” to “AAAGAAUGAAGGCAGGAUAUGUGAAAAAAAACAUGAGGAUCACCCAUGUAAUAAAUGGGUACAAAACAGAAGGGCCAAGAAACAA [SS 2 Tesla 3]”, the “apparent KD of MS2 coat protein” value rises from 0.0255 µM to 0.38 µM (15-fold).

Compared with “CAUAGACAUGAGGAUCACCCAUGUAGAAUUAUGGGAGGAUAUACAAAGACGAGAGUCAGAGUAGAAGGCCUAGGAG [salish99-ss1-163]”, “AGAAGACAUGAGGAUCACCCAUGUGCACGUGGAGGAGGAUAUGCUAGUAGAAGAUAGAAUGCAGAAGGCCUAAGAA [Mat - Mod]” is 2.1-fold higher in “apparent KD of MS2 coat protein” value: 0.0244 µM for the first, 0.0519 µM for the second.

Going from “AAUAGACAUGAGGAUCACCCAUGUAGAAUUAUGGGAGGAUAUACAAAGACGAGAGUCAGAGUAGAAGGCCUAGGAG [salish99-ss1-150]” to “CAGGACCUAGGAUAGGAUAUAUGAAUAAUUACAUGAGGAUCACCCAUGUCCAUUUAUAUGGGAACAUAGAAGGGUUGUGGUUAUG [Mat - Same state - Malcolm Mod - D133]”, the “apparent KD of MS2 coat protein” value rises from 0.0221 µM to 0.179 µM (8.1-fold).

Going from “AAUAAACAUGAGGAUCACCCAUGUACCUACCACUAAGGAUAUGGGCGAAUAACAGCUCGGCCAGAAGGUAGAGGUG [Onususer]” to “AAAAGACAUGAGGAUCACCCAUGUAAAAACGUAGGAGGAUAUGUCGUGAAAAAAGACUUGGCAGAAGGCCUGUGUC [SS1 - 39]”, the “apparent KD of MS2 coat protein” value falls from 0.116 µM to 0.03 µM (3.9-fold).

Compared with “AGAAAUAAAAGACAGGAUAUCCACUCAAAAACAUGAGGAUCACCCAUGUAAAAGAAAAUAAAAUGGGAGAAGGGUCAAAAUAAGA [Jieux modified + C segment V7]”, “GAAAUAAAAAGACAGGAUAUCCAAAAGAAAACAUGAGGAUCACCCAUGUAAAGAAAAUAAAAAUGGGAGAAGGGUCAAAUAAAAG [Mat - Same State 2 - JL mod - D54]” is 1.5-fold higher in “apparent KD of MS2 coat protein” value: 0.0155 µM for the first, 0.024 µM for the second.

Compared with “AAGACACAUGAGGAUCACCCAUGUCAAGAGAGACGAGGAUAUCUGAAUUAAUUAAAUUAAGGAGAAGGCGUGAAAA [Same State of Confusion2]”, “AUUCCAAAUAGUCAGGAUAUCAGGCGUAAGACAUGAGGAUCACCCAUGUACUUAGUAAAAGUAACUGAGAAGGGACAGGGUGUAA [JR_SS002_Sub407]” is 2.7-fold lower in “apparent KD of MS2 coat protein” value: 0.0231 µM for the first, 0.00864 µM for the second.

In the case of “AGAAAUAAAGCUGAGGAUAUGGGUAAAUACACAUGAGGAUCACCCAUGUAAAAGAAAAUAAAAAACCAGAAGGCAGCAAAUAAGA [Designing denovo 4]”, the “apparent KD of MS2 coat protein” value is reported as 0.0234 µM.
